Laboratory results from patent US20210380675A1 (Kyowa Kirin, published 2021).
Positions count from the first letter of the chain named. Each block holds one binder with its values, some of them ahead of it.

Assays:
[1] = molecular target: T1, human IL-36α(R12), truncated (human, UniProt Q9UHA7 6-158); assay: cell-based or functional assay
T1 chain: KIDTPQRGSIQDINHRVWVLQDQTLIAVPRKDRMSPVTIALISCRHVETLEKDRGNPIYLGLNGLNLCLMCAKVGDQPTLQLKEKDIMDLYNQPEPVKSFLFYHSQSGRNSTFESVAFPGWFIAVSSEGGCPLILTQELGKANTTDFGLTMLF

[2] = molecular target: T2, cynomolgus IL-36α, truncated (cynomolgus macaque (Macaca fascicularis), UniProt Q9UHA7 14-158 (human entry), limits assumed); assay: cell-based or functional assay
T2 chain: T1 chain with I2S, D3E, T4M, R7P, G8V, T24I, M34V, A40S, V74A

human IL-36γ, truncated [3] = molecular target: T3, human IL-36γ, truncated (human, UniProt Q9NZH8 18-169); assay: cell-based or functional assay
T3 sequence: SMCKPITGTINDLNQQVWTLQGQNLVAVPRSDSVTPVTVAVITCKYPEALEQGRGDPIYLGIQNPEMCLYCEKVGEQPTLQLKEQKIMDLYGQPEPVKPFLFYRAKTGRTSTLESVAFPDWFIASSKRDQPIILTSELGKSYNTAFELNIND

[4] = molecular target: T4, cynomolgus IL-36γ, truncated (cynomolgus macaque (Macaca fascicularis), UniProt Q9NZH8 18-167 (human entry), limits assumed); assay: cell-based or functional assay
T4 chain: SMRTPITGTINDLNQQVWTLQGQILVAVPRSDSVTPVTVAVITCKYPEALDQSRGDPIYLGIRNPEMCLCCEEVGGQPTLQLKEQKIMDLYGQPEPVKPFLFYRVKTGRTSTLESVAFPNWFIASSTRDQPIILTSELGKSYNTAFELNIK

[5] = molecular target: T1, human IL-36α(R12), truncated; assay: cell-based or functional assay
human IL-36γ, truncated [6] = molecular target: T3, human IL-36γ, truncated; assay: cell-based or functional assay; remark: listed apart in the source
[7] = molecular target: T1, human IL-36α(R12), truncated; assay: cell-based or functional assay
human IL-36γ, truncated [8] = molecular target: T3, human IL-36γ, truncated; assay: cell-based or functional assay; remark: listed apart in the source
[9] = molecular target: T1, human IL-36α(R12), truncated; assay: SPR, Biacore, 1:1 Langmuir fit
Method: (§1) The humanized antibodies obtained in Example 6 were tested for their binding to recombinant human or cynomolgus macaque IL36a and IL-36γ in Biacore assays. The association time was set to 60 seconds, and the final dissociation time was set to 600 seconds. Equilibrium dissociation constant KD (kd/ka) of exemplary antibodies was determined using a 1:1 Langmuir fit model (see Tables 17-18 below).

human IL-36γ, truncated [10] = molecular target: T3, human IL-36γ, truncated; assay: SPR, Biacore, 1:1 Langmuir fit
Method: as §1

[11] = molecular target: T2, cynomolgus IL-36α, truncated; assay: SPR, Biacore, 1:1 Langmuir fit
Method: as §1

[12] = molecular target: T4, cynomolgus IL-36γ, truncated; assay: SPR, Biacore, 1:1 Langmuir fit
Method: as §1

[13] = molecular target: T1, human IL-36α(R12), truncated; assay: SPR, Biacore, 1:1 Langmuir fit; heads of c3 and c4 printed swapped
Method: as §1

human IL-36γ, truncated [14] = molecular target: T3, human IL-36γ, truncated; assay: as above
Method: as §1

[15] = molecular target: T2, cynomolgus IL-36α, truncated; assay: as above
Method: as §1

[16] = molecular target: T4, cynomolgus IL-36γ, truncated; assay: as above
Method: as §1

[17] = molecular target: T1, human IL-36α(R12), truncated; assay: SPR, Biacore T200, antibody on chip, IL-36 as analyte, 1:1 Langmuir fit
Method: (§2) Antibodies were further tested for their binding to recombinant human or cynomolgus IL36α, IL-36γ in Biacore assays. In order to kinetically analyze the binding activity of the IL-36α and IL-36γ dual antagonist antibodies, the binding activity to human and cynomolgus IL-36α and IL-36γ was measured by surface plasmon resonance method (SPR). All of the following manipulations were carried out using a Biacore T200 (GE Healthcare Life Sciences, Pittsburgh, Pa.).
(§3) To determine antibody affinity to human and cynomolgus IL36, recombinant antibodies were immobilized on a CM5 sensor chip (cat# BR100012, GE Healthcare Life Sciences, Pittsburgh, Pa.) by an amine coupling chemistry. In particular, the kinetic assay was carried out by immobilizing on the chip approximately 2000 RU of recombinant antibody. Thereafter, recombinant human or cynomolgus IL36 proteins, serially diluted from a high concentration, were allowed to run at a flow rate of 30 μL/min onto the chip for 420 seconds. The dissociation time was 3600 seconds and the binding curves were measured at 25° C. Regeneration was performed with 10 mM glycine pH 1.5 for 30s. Alternatively, the analytes were injected with increasing concentrations in a single cycle, the surface not being regenerated between injections, using a method referred to as “single cycle kinetics.” In particular, either anti-human or anti-mouse Fc specific antibodies were immobilized on a CM5 sensor chip (cat# BR100012, GE Healthcare Life Sciences, Pittsburgh, Pa.) by an amine coupling chemistry. Thereafter, IL-36α and IL-36γ dual antagonist mouse/human chimeric or mouse antibodies were captured at approximately 200 RUs, followed by injections of increasing concentrations of recombinant human and cynomolgus IL36 proteins. The association time was 300 seconds, and the final dissociation time was 1200 seconds. At the end of the analyte injections, the surface was regenerated with either 3M MgCl₂ (anti-human Fc capture antibody) for 30 s or 10 mM glycine-HCl pH 1.7 for 180 s (anti-mouse IgG capture antibody).
(§4) The raw data were double referenced by subtraction of the signals from a reference flow cell without immobilized ligand and a buffer blank. The sensorgram corresponding to each concentration was obtained.

human IL-36γ, truncated [18] = molecular target: T3, human IL-36γ, truncated; assay: as above
Method: as §2, §3, §4

[19] = molecular target: T2, cynomolgus IL-36α, truncated; assay: as above
Method: as §2, §3, §4

[20] = molecular target: T4, cynomolgus IL-36γ, truncated; assay: as above
Method: as §2, §3, §4

human IL-36γ, truncated [21] = molecular target: T3, human IL-36γ, truncated; assay: cell-based or functional assay; remark: listed apart in the source
[22] = molecular target: T5, human IL-36α (R&D Systems cat#6995-IL-010/CF) (human, UniProt Q9UHA7 6-158); assay: cell-based or functional assay
T5 sequence (looked up): T1 chain with R7Q

B1: 144L249B (antibody, V domains shown)
VH: EVQLQQSGAELVKPGASVKLSCTASGFNIKDTYIYWVKQRPEQGLEWIGRIDPAIGTTRYDPKFQGKATLTADTSSNTAFLQLSSLTSEDTAVYYCARYDYSGSSFYFDYWGRGTTLTVSS
VL: QAVVTQESALTTSPGETVTLTCRSSTGAVTTSNYANWVQEKPDHLFTGLIGGTNNRAPGVPARFSGSLIGDKAALTITGAQTEDEAIYFCALWYSNHLVFGGGTKLTVL
notes: Mouse monoclonal from hybridoma; mouse IgG heavy and lambda light chain; also called mouse antibody 144L249B
IC50 of IL-8 secretion, HaCaT, 10 nM human IL-36α, FIG. 1C [1]: 14.5 nM
IC50 of IL-8 secretion, HaCaT, 10 nM cynomolgus IL-36α, FIG. 2B [2]: 7.94 nM
IC50 of IL-8 secretion, HaCaT, 10 nM human IL-36γ, FIG. 1F (human IL-36γ, truncated [3]): 9.81 nM
IC50 of IL-8 secretion, HaCaT, 10 nM cynomolgus IL-36γ, FIG. 2D [4]: 11.8 nM
IC50 of IL-8 secretion, primary human keratinocytes, 6.25 nM human IL-36α, FIG. 4A [5]: 13.8 nM
IC50 of IL-8 secretion, primary human keratinocytes, 8.4 nM human IL-36γ, FIG. 4C (human IL-36γ, truncated [6]): 9.28 nM
IC50 of IL-8 secretion, primary human monocytes, 20 nM human IL-36α, FIG. 5A [7]: 27.1 nM
IC50 of IL-8 secretion, primary human monocytes, 6 nM human IL-36γ, FIG. 5C (human IL-36γ, truncated [8]): 12 nM
IC50 of IL-8 secretion, primary human monocytes, 50 nM human IL-36γ, FIG. 5D (human IL-36γ, truncated [8]): 38.7 nM
Kd [9]: 1.53 nM
Kd (human IL-36γ, truncated [10]): 0.399 nM
Kd [11]: 1.16 nM
Kd [12]: 0.288 nM
koff [13]: 0.000785 s⁻¹
kon [13]: 515000 M⁻¹ s⁻¹
koff (human IL-36γ, truncated [14]): 0.000395 s⁻¹
kon (human IL-36γ, truncated [14]): 990000 M⁻¹ s⁻¹
koff [15]: 0.00105 s⁻¹
kon [15]: 905000 M⁻¹ s⁻¹
koff [16]: 0.000326 s⁻¹
kon [16]: 1.13e+06 M⁻¹ s⁻¹
Kd [17]: 1.67 nM
koff [17]: 0.000899 s⁻¹
kon [17]: 539000 M⁻¹ s⁻¹
Kd (human IL-36γ, truncated [18]): 0.377 nM
koff (human IL-36γ, truncated [18]): 0.000194 s⁻¹
kon (human IL-36γ, truncated [18]): 516000 M⁻¹ s⁻¹
Kd [19]: 1.28 nM
koff [19]: 0.000839 s⁻¹
kon [19]: 658000 M⁻¹ s⁻¹
Kd [20]: 0.312 nM
koff [20]: 0.000197 s⁻¹
kon [20]: 631000 M⁻¹ s⁻¹

B2: 144L249B LV9 HV11 (antibody, V domains shown)
VH: QVQLVQSGAEVKKPGASVKVSCKASGFNIKDTYIYWVRQAPGQGLEWIGRIDPAIGTTRYDPKFQGKATLTTDTSTNTAYLELSSLRSEDTAVYYCARYDYSGSSFYFDYWGQGTLVTVSS
VL: QAVVTQEPSLTVSPGGTVTLTCRSSTGAVTTSNYANWVQEKPGQLFTGLIGGTNDRAPGVPARFSGSLLGGKAALTLSGAQPEDEADYFCALWYSNHLVFGGGTKLTVL
notes: Humanized
IC50 of IL-8 secretion (AlphaLISA), HaCaT, 10 nM human IL-36γ (human IL-36γ, truncated [21]): 16.5 nM
IC50 of IL-8 secretion (AlphaLISA), HaCaT, 10 nM human IL-36α [22]: 7.68 nM
Kd [9]: 1.29 nM
Kd (human IL-36γ, truncated [10]): 0.795 nM
Kd [11]: 0.927 nM
Kd [12]: 0.913 nM
koff [13]: 0.00102 s⁻¹
kon [13]: 791000 M⁻¹ s⁻¹
koff (human IL-36γ, truncated [14]): 0.000706 s⁻¹
kon (human IL-36γ, truncated [14]): 888000 M⁻¹ s⁻¹
koff [15]: 0.00135 s⁻¹
kon [15]: 1.46e+06 M⁻¹ s⁻¹
koff [16]: 0.000866 s⁻¹
kon [16]: 948000 M⁻¹ s⁻¹

Second part, the binder after the results:

IC50 of IL-8 secretion (AlphaLISA), HaCaT, 10 nM human IL-36γ (human IL-36γ, truncated [21]): 25.8 nM
IC50 of IL-8 secretion (AlphaLISA), HaCaT, 10 nM human IL-36α [22]: 9.2 nM
Kd [9]: 1.37 nM
Kd (human IL-36γ, truncated [10]): 0.789 nM
Kd [11]: 1 nM
Kd [12]: 0.91 nM
koff [13]: 0.00103 s⁻¹
kon [13]: 749000 M⁻¹ s⁻¹
koff (human IL-36γ, truncated [14]): 0.000678 s⁻¹
kon (human IL-36γ, truncated [14]): 859000 M⁻¹ s⁻¹
koff [15]: 0.0014 s⁻¹
kon [15]: 1.4e+06 M⁻¹ s⁻¹
koff [16]: 0.000831 s⁻¹
kon [16]: 913000 M⁻¹ s⁻¹
B3: 144L249B LV7a HV11 (antibody, V domains shown)
VH: B2 VH
VL: B2 VL with E40Q, L45A, L77I
notes: Humanized

IC50 of IL-8 secretion (AlphaLISA), HaCaT, 10 nM human IL-36γ (human IL-36γ, truncated [21]): 20.7 nM
IC50 of IL-8 secretion (AlphaLISA), HaCaT, 10 nM human IL-36α [22]: 6.61 nM
Kd [9]: 1.39 nM
Kd (human IL-36γ, truncated [10]): 0.942 nM
Kd [11]: 0.944 nM
Kd [12]: 1.13 nM
koff [13]: 0.000989 s⁻¹
kon [13]: 714000 M⁻¹ s⁻¹
koff (human IL-36γ, truncated [14]): 0.000728 s⁻¹
kon (human IL-36γ, truncated [14]): 772000 M⁻¹ s⁻¹
koff [15]: 0.00126 s⁻¹
kon [15]: 1.34e+06 M⁻¹ s⁻¹
koff [16]: 0.000969 s⁻¹
kon [16]: 855000 M⁻¹ s⁻¹
B4: 144L249B LV9 HV10b (antibody, V domains shown)
VH: B2 VH with N77S
VL: B2 VL
notes: Humanized

IC50 of IL-8 secretion (AlphaLISA), HaCaT, 10 nM human IL-36γ (human IL-36γ, truncated [21]): 11.5 nM
IC50 of IL-8 secretion (AlphaLISA), HaCaT, 10 nM human IL-36α [22]: 5.13 nM
Kd [9]: 0.992 nM
Kd (human IL-36γ, truncated [10]): 0.625 nM
Kd [11]: 0.674 nM
Kd [12]: 0.552 nM
koff [13]: 0.000843 s⁻¹
kon [13]: 850000 M⁻¹ s⁻¹
koff (human IL-36γ, truncated [14]): 0.000625 s⁻¹
kon (human IL-36γ, truncated [14]): 999000 M⁻¹ s⁻¹
koff [15]: 0.00103 s⁻¹
kon [15]: 1.53e+06 M⁻¹ s⁻¹
koff [16]: 0.000603 s⁻¹
kon [16]: 1.09e+06 M⁻¹ s⁻¹
B5: 144L249B LV9 HV10c (antibody, V domains shown)
VH: B2 VH with T72A
VL: B2 VL
notes: Humanized
